Data published in patent publication US20220380438A1 (OXFORD UNIVERSITY INNOVATION, published 2022).

How the values were obtained:
[1] = target: the molecule itself; assay: NanoBRET, Nluc and HaloTag fusions co-transfected in HEK293T cells
Procedure: (§1) To investigate the interaction between AR FL protein and AR2 protein, NanoBRET assay was performed (Promega NanoBRET™ Protein: Protein Interaction System). Briefly, HEK293T cells were co-transfected with a Nanoluc luciferase (Nluc) fusion plasmid and a HaloTag fusion plasmid with Lipofectamine 2000 reagent. Nluc-MDM2 and p53-HaloTag pair was included as the positive control, and Nluc-MDM2 and HaloTag-SMAD4 pair as negative control. At 24 h after transfection, cells were treated with or without 10 nM DHT. HaloTag NanoBRET 618 ligand or DMSO (no-ligand control) was added. At 24 h, NanoBRET Nano-Glo substrate was added and NanoBRET readings at 460 nm and 618 nm were obtained. Mean corrected NanoBRET ratio in milliBRET unit was calculated using the formula: Mean corrected Nanobret ratio, […]

[2] = target: T1, human androgen receptor (AR), full length (human, UniProt P10275 1-920); assay: as above
T1 construct: Full-length AR expressed inside transfected HEK293T cells, not on the cell surface; In the NanoBRET assay it was an N- or C-terminal fusion with Nanoluc luciferase or HaloTag; For co-IP the constructs were with or without an N-terminal FLAG tag; Assays were run with or without 10 nM DHT; also called AR1; AR FL
T1 sequence: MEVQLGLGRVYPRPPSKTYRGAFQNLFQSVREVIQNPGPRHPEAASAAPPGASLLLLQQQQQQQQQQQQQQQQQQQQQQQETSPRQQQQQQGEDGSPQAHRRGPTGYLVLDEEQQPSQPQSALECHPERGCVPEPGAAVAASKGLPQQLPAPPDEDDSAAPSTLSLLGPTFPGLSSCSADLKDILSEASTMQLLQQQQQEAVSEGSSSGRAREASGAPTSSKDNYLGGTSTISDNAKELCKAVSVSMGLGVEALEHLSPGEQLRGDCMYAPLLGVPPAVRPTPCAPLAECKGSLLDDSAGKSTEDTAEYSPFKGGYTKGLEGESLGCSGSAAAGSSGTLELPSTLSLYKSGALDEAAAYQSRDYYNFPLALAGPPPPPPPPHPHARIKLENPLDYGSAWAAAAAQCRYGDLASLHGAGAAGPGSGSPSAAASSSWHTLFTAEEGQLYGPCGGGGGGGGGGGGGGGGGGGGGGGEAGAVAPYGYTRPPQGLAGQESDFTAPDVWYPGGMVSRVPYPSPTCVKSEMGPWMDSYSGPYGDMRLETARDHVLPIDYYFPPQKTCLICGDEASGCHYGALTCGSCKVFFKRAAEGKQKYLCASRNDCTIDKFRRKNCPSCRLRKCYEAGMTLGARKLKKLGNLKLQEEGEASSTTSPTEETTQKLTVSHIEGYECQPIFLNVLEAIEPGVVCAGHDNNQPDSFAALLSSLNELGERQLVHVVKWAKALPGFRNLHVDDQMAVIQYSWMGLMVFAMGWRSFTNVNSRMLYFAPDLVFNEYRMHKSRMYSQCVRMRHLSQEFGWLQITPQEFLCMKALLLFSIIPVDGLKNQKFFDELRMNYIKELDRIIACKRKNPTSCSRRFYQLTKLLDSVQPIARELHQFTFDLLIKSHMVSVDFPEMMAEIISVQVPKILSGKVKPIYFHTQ
Procedure: as §1

binding result [2]: binds
B1: human androgen receptor splice variant 2 (AR2) (receptor)
chain: MILWLHSLETARDHVLPIDYYFPPQKTCLICGDEASGCHYGALTCGSCKVFFKRAAEGKQKYLCASRNDCTIDKFRRKNCPSCRLRKCYEAGMTLGARKLKKLGNLKLQEEGEASSTTSPTEETTQKLTVSHIEGYECQPIFLNVLEAIEPGVVCAGHDNNQPDSFAALLSSLNELGERQLVHVVKWAKALPGFRNLHVDDQMAVIQYSWMGLMVFAMGWRSFTNVNSRMLYFAPDLVFNEYRMHKSRMYSQCVRMRHLSQEFGWLQITPQEFLCMKALLLFSIIPVDGLKNQKFFDELRMNYIKELDRIIACKRKNPTSCSRRFYQLTKLLDSVQPIARELHQFTFDLLIKSHMVSVDFPEMMAEIISVQVPKILSGKVKPIYFHTQ
notes: Whole AR2 expressed inside transfected HEK293T cells; In the NanoBRET assay it was a fusion with Nanoluc luciferase or HaloTag; For co-IP it was with or without an N-terminal FLAG tag (anti-FLAG M2 beads); also called AR45; AR splice variant 2
binding result [1]: binds
